# Results taken from paper PMC5921417, “The β-glucosidase secreted by Talaromyces amestolkiae under carbon starvation: a versatile catalyst for biofuel production from plant and algal biomass” (Biotechnology for Biofuels, 2018).
# What was measured:
# [1] = tested on: O=[N+]([O-])c1ccccc1O[C@@H]1O[C@H](CO)[C@@H](O)[C@H](O)[C@H]1O; test: purified protein; conditions: sodium acetate 100 mM pH 4.0, 70 °C (standard reaction), 0.1% BSA
# [2] = tested on: T1, O=[N+]([O-])c1ccc(O[C@@H]2O[C@H](CO)[C@@H](O)[C@H](O)[C@H]2O)cc1; test: purified protein; format: biochemical, Talaromyces amestolkiae; conditions: sodium acetate 100 mM pH 4.0, 70 °C (standard reaction), 0.1% BSA
# T1 construct: native enzyme secreted by T. amestolkiae, purified from culture (Mandels medium, glucose); signal peptide removed; glycosylated; gene codes for 857 aa; non-covalent dimer about 222 kDa; mature N-terminus YSPPAYP deduced from the cloning primer
# [3] = molecular target: β-glucosidase BGL-3 from Talaromyces amestolkiae (native enzyme) (Talaromyces amestolkiae); test: SEC; Superose 12 column; native purified BGL-3; mass around 222 kDa against 107.0 kDa for the monomer by MALDI-TOF
stoichiometry N [3],Substance,Km [1] [µM],Vmax [1] [µmol/min/mg],kcat [1] [s⁻¹],kcat/Km [1] [M⁻¹ s⁻¹],Km [2] [µM],Vmax [2] [µmol/min/mg],kcat [2] [s⁻¹],kcat/Km [2] [M⁻¹ s⁻¹]
–,BGL-3 (β-glucosidase g377) (Talaromyces amestolkiae),140 ± 100,142,507,3.43e+06,140 ± 100,381,1360,9.71e+06
2,β-glucosidase BGL-3 from Talaromyces amestolkiae (native enzyme),–,–,–,–,–,–,–,–
